Assay results published in IntAct's records for PubMed 20664522.

B1: CAP-Gly domain-containing linker protein 1 (Rattus norvegicus (Rat)), Q9JK25 (parent)
chain: MSMLKPSGLKAPTKILKPGSTALKTPAAAAAPLEKTVPSEKASGPPSSETQEEFVDDFRVGERVWVNGNKPGFIQFLGETQFAPGQWAGIVLDEPIGKNDGSVAGVRYFQCEPLKGIFTRPSKLTRKVQAEDEANGLQTAHARAASPLSTAAATMVSSSPATPSNIPQKPSQPVAKETSATPQISNLTKTASESISNLSEAGSVKKGERELKIGDRVLVGGTKAGVVRFLGETDFAKGEWCGVELDEPLGKNDGAVAGTRYFQCQPKYGLFAPVHKVTKIGFPSTTPAKAKAAAVRRVMATTPASLKRSPSASSLSSMSSVASSVSSKPSRTGLLTETSSRYARKISGTTALQEALKEKQQHIEQLLAERDLERAEVAKATSHVGEIEQELALARDGHDQHVLELEAKMDQLRTMVEAADREKVELLNQLEEEKRKVEDLQFRVEEESITKGDLETQTKLEHARIKELEQSLLFEKTKADKLQRELEDTRVATVSEKSRIMELEKDLALRVQEVAELRRRLESSKPPGDVDMSLSLLQEISALQEKLEVTHTDHQNEVTSLKDHFGTREEMFQKEIKALHAATEKLSKENESLRSKLDHANKENSDVIALWKSKLETAIASHQQAMEELKVSFSKGIGTDSAEFAELKTQIERLRLDYQHEIESLQSKQDSERSAHAKEMESMKAKLMKIIKEKEDSLEAVKARLDTAEDQHLVEMEEMLSKLQEAEIKKEKFASASEEAVSTQTSMQDTVNKLHQKEEQFNMLSSELEKLRENLTDMEAKFKEKDEREDQLVKAKEKLENDIAEIMKMSGDNSSQLTKMNDELRLKERSVEELQLKLTKANENASLLQKSIGEVTLKAEQSQQEAAKKHEEEKKELENKLLELEKKMETSHYQCQDLKAKYEKASSETKIKHEEILQNFQKMLVDTEDKLKAAQEANRDLMQDMEELKSQADKAKAAQTAEDAMQIMEQMTKEKTETLASLEDTKQTNAKLQSELDTLKENNLKTVEELNKSKELLNEENQKMEEFKKEIETLKQAAAQKSQQLSALQEENVKLAEELGRTRDEVTSHQKLEEERSVLNNQLLEMKKSLPSNTLRESEYRKDADEEKASLQKSISLTSALLTEKDAELEKLRNEVTVLRGENASAKSLHSVVQTLESDKVKLELKVKNLELQLKENKRQLSSSSGNTDVQTEEDERAQESQQMIDFLNSVIVDLQRKNQDLKMKVEMMSEAALNGNGEDPNSYDSDDQEKQSKKKPRLFCDICDCFDLHDTEDCPTQAQMSEDPPHSTHHGSRSEERPYCEICEMFGHWATNCNDDETF
B2: CAP-Gly domain-containing linker protein 1 (Homo sapiens), P30622 (parent)
chain: MSMLKPSGLKAPTKILKPGSTALKTPTAVVAPVEKTISSEKASSTPSSETQEEFVDDFRVGERVWVNGNKPGFIQFLGETQFAPGQWAGIVLDEPIGKNDGSVAGVRYFQCEPLKGIFTRPSKLTRKVQAEDEANGLQTTPASRATSPLCTSTASMVSSSPSTPSNIPQKPSQPAAKEPSATPPISNLTKTASESISNLSEAGSIKKGERELKIGDRVLVGGTKAGVVRFLGETDFAKGEWCGVELDEPLGKNDGAVAGTRYFQCQPKYGLFAPVHKVTKIGFPSTTPAKAKANAVRRVMATTSASLKRSPSASSLSSMSSVASSVSSRPSRTGLLTETSSRYARKISGTTALQEALKEKQQHIEQLLAERDLERAEVAKATSHVGEIEQELALARDGHDQHVLELEAKMDQLRTMVEAADREKVELLNQLEEEKRKVEDLQFRVEEESITKGDLEQKSQISEDPENTQTKLEHARIKELEQSLLFEKTKADKLQRELEDTRVATVSEKSRIMELEKDLALRVQEVAELRRRLESNKPAGDVDMSLSLLQEISSLQEKLEVTRTDHQREITSLKEHFGAREETHQKEIKALYTATEKLSKENESLKSKLEHANKENSDVIALWKSKLETAIASHQQAMEELKVSFSKGLGTETAEFAELKTQIEKMRLDYQHEIENLQNQQDSERAAHAKEMEALRAKLMKVIKEKENSLEAIRSKLDKAEDQHLVEMEDTLNKLQEAEIKVKELEVLQAKCNEQTKVIDNFTSQLKATEEKLLDLDALRKASSEGKSEMKKLRQQLEAAEKQIKHLEIEKNAESSKASSITRELQGRELKLTNLQENLSEVSQVKETLEKELQILKEKFAEASEEAVSVQRSMQETVNKLHQKEEQFNMLSSDLEKLRENLADMEAKFREKDEREEQLIKAKEKLENDIAEIMKMSGDNSSQLTKMNDELRLKERDVEELQLKLTKANENASFLQKSIEDMTVKAEQSQQEAAKKHEEEKKELERKLSDLEKKMETSHNQCQELKARYERATSETKTKHEEILQNLQKTLLDTEDKLKGAREENSGLLQELEELRKQADKAKAAQTAEDAMQIMEQMTKEKTETLASLEDTKQTNAKLQNELDTLKENNLKNVEELNKSKELLTVENQKMEEFRKEIETLKQAAAQKSQQLSALQEENVKLAEELGRSRDEVTSHQKLEEERSVLNNQLLEMKKRESKFIKDADEEKASLQKSISITSALLTEKDAELEKLRNEVTVLRGENASAKSLHSVVQTLESDKVKLELKVKNLELQLKENKRQLSSSSGNTDTQADEDERAQESQIDFLNSVIVDLQRKNQDLKMKVEMMSEAALNGNGDDLNNYDSDDQEKQSKKKPRLFCDICDCFDLHDTEDCPTQAQMSEDPPHSTHHGSRGEERPYCEICEMFGHWATNCNDDETF

Variants of: B1
Settings: with dctn1_human DCTN1, Q14203
dctn1_human DCTN1, Q14203, sequence (Q14203 whole entry): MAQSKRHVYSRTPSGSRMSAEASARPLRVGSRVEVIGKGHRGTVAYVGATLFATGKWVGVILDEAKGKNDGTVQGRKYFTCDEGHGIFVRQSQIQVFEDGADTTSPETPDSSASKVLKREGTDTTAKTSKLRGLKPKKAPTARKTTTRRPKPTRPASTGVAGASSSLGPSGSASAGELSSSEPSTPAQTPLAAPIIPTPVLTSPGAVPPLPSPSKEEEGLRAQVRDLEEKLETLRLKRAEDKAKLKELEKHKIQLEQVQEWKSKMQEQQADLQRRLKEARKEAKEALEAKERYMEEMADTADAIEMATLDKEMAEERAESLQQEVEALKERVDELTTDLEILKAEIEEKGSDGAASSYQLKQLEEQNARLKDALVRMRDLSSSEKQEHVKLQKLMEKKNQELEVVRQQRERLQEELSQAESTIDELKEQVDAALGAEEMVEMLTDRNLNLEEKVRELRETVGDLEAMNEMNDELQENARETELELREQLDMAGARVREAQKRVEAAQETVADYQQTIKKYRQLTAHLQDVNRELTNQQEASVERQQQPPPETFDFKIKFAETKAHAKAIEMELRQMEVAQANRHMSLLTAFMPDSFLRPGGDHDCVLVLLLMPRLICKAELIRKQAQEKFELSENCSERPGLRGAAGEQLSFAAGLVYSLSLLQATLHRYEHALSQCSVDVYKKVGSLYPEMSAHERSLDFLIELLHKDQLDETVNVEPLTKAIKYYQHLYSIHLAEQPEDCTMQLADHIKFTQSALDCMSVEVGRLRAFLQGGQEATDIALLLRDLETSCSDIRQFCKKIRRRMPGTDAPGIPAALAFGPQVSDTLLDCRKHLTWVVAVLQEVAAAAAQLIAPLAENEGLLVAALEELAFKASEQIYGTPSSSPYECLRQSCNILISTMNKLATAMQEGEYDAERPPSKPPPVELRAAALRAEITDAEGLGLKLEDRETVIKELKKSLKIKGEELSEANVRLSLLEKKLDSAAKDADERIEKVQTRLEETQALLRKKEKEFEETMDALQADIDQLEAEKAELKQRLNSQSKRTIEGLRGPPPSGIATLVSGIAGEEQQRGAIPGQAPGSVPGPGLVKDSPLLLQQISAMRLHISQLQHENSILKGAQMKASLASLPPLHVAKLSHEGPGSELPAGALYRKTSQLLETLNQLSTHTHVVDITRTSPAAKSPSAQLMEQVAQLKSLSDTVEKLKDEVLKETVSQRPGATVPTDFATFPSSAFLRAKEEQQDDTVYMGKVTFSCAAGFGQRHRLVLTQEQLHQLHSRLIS

S194A was tested. Which “effect of a mutation on the interaction” value did it give?
Its value is “disrupting interaction”.

Variants of: B1
Settings: with csk2b_human CSNK2B
Target sequence in this assay (P67870 whole entry): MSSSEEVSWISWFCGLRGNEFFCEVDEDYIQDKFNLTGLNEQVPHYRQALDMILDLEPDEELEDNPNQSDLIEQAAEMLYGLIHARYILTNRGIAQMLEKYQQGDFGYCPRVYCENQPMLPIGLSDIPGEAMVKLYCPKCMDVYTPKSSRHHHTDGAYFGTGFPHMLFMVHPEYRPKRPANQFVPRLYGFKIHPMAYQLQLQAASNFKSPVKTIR

How did the “effect of a mutation on the interaction” value turn out when S194E was run?
Its value is “increasing interaction”.

Variants of: B1
Settings: with dctn1_human DCTN1, Q14203
Remark: another data set of the same source

With S1246A as the variant, how does the “effect of a mutation on the interaction” value read?
The value was “decreasing interaction”.

Variants of: B2
Settings: with csk2b_human CSNK2B
Target sequence in this assay (P67870 whole entry): as above

For S195A, which “effect of a mutation on the interaction” value is on record?
The value was “decreasing interaction”.
